The source of these data is the Human Domainome abundance scans (Beltran et al. 2025).

B1: POU domain, class 3, transcription factor 2, residues 262 to 338; numbered along this chain, P20265 (parent)
chain: EDTPTSDDLEQFAKQFKQRRIKLGFTQADVGLALGTLYGNVFSQTTICRFEALQLSFKNMCKLKPLLNKWLEEADSS

± gives the uncertainty stated by the source.

Variants of B1 are the subject of this data set. The experiment in a line: abundance fitness (aPCA) (normalised: wild type 0, dead -1); higher = more abundant; growth selection in yeast, the domain comes from the species named. Conditions: Homo sapiens.
In the case of EDTPTSDDLEQFAKQFKQRRIKLGFTQADVGLALGTLYGNVFSQTTICRFEALQLSFKNMCKLKPLLNKWLEVADSS, the abundance fitness was -0.067 ± 0.073.
As to EDTPTSDDLEQFAKQFIQRRIKLGFTQADVGLALGTLYGNVFSQTTICRFEALQLSFKNMCKLKPLLNKWLEEADSS, the abundance fitness is -0.349 ± 0.072.
For the variant EDTPTSDDLEQFAKQFFQRRIKLGFTQADVGLALGTLYGNVFSQTTICRFEALQLSFKNMCKLKPLLNKWLEEADSS, the abundance fitness was -0.9 ± 0.2.
For the variant EDTPTSDDLEQFAKQFEQRRIKLGFTQADVGLALGTLYGNVFSQTTICRFEALQLSFKNMCKLKPLLNKWLEEADSS, the abundance fitness is -0.39 ± 0.035.
Under EDTPTSDDLEQFAKQFKQRRIKLGFTQADVGLALTTLYGNVFSQTTICRFEALQLSFKNMCKLKPLLNKWLEEADSS stands 0.052 ± 0.038; under EDTPTSDDLEQFAKQFKQRRIKLGFTQADVGLALGTLYGNVFSQTTICRFESLQLSFKNMCKLKPLLNKWLEEADSS, 0.015 ± 0.033.
Under EDTPTSDDLEQFAKQFKQRRIKLGFTQADVGLALGTLYGNVFSQTTICRFENLQLSFKNMCKLKPLLNKWLEEADSS stands 0.008 ± 0.062; under EDTPTSDDLEQFAKQFKQRRIKLGFTQADVGLALGTLYGNVFSQTTICRFEALQLSFKNMCKLKPQLNKWLEEADSS, -0.233 ± 0.046; under EDTPTSDDLEQFAKQFKQRRIKLGFTQADVGLALGTLYGNVFSQTTICRFEALQLSFKNMCKLKPLGNKWLEEADSS, -1.05 ± 0.21.
In the case of EDTPTSDDLEQFAKQFKQRRIKLGFTQADVGLALGTLYGNVFSQTTICRFEALQLSFKNMCKLKPLKNKWLEEADSS, the abundance fitness was -0.688 ± 0.18.
As for EDTPTSDDLEQFAKQFKQRRIYLGFTQADVGLALGTLYGNVFSQTTICRFEALQLSFKNMCKLKPLLNKWLEEADSS, the abundance fitness is -0.3 ± 0.093.
As for EDTPTSDDLEQFAKQFKQRRIKLGFTQADVGLALGTLYGNVFSQTTICRLEALQLSFKNMCKLKPLLNKWLEEADSS, the abundance fitness was -0.487 ± 0.039.
With EDTPTSDDLEQFAKQFKQRRIKLGFTQADVGLALGTLYGNVFSQTTICRVEALQLSFKNMCKLKPLLNKWLEEADSS, the abundance fitness was -0.682 ± 0.049.
For the variant EDTPTSDDLEQFAKQFKQRRIKLGFTQADVGLALGTLYGNVFSQTTICRGEALQLSFKNMCKLKPLLNKWLEEADSS, the abundance fitness is -0.839 ± 0.057.
The value for EDTPTSDDLEQFAKQFKQRRIKLGFTQADVGLALGTWYGNVFSQTTICRFEALQLSFKNMCKLKPLLNKWLEEADSS was -0.201 ± 0.033; that for EDTPTSDDLEQFAKQFKQRRIKLGFTQADVGLALGTQYGNVFSQTTICRFEALQLSFKNMCKLKPLLNKWLEEADSS was -0.027 ± 0.044; that for EDTPTSDDLEQFAKQFKQRRIKLGFTQADVGLALGTYYGNVFSQTTICRFEALQLSFKNMCKLKPLLNKWLEEADSS was -0.157 ± 0.089.
The value for EDTPTSDDLEQFAKQFKQRRIKLGFTQADVGLALGTLYGNVFSQTTICRFVALQLSFKNMCKLKPLLNKWLEEADSS was -0.965 ± 0.09.
Under EDTPTSDDLEQFAKQFKQRRIKLGFTQADVGLALGTLYGNVFSQTTICRFEALQLSFKNMCKLKPLLNKWLEEAASS stands 0.009 ± 0.031.
Consider EDTPTSDDLEQFAKQFKQRRIKLGFTQADVGLALGTLYGNVFSQTTICRFEALQLSFKNMCKLKPLLNKWLYEADSS, for which the abundance fitness is -0.217 ± 0.085.
Turning to EDTPTSDDLEQFAKQFKQKRIKLGFTQADVGLALGTLYGNVFSQTTICRFEALQLSFKNMCKLKPLLNKWLEEADSS, the abundance fitness came out at 0.035 ± 0.051.
The value for EDTPTSDDLEQFAKQFKQRRIKLGFTQADVGLALGTLYGNVFSQTTICRFEALQLSFKNMCKLKPLLNKWLEEADES was 0.002 ± 0.038; that for EDTPTSDDLERFAKQFKQRRIKLGFTQADVGLALGTLYGNVFSQTTICRFEALQLSFKNMCKLKPLLNKWLEEADSS was 0.001 ± 0.028.
For EDTPTSDDLEVFAKQFKQRRIKLGFTQADVGLALGTLYGNVFSQTTICRFEALQLSFKNMCKLKPLLNKWLEEADSS, the abundance fitness is -0.015 ± 0.028.
As to EDTPTSDDLENFAKQFKQRRIKLGFTQADVGLALGTLYGNVFSQTTICRFEALQLSFKNMCKLKPLLNKWLEEADSS, the abundance fitness stood at 0.025 ± 0.078.
Under EDTPTSDDLEPFAKQFKQRRIKLGFTQADVGLALGTLYGNVFSQTTICRFEALQLSFKNMCKLKPLLNKWLEEADSS stands -0.629 ± 0.08; under EDSPTSDDLEQFAKQFKQRRIKLGFTQADVGLALGTLYGNVFSQTTICRFEALQLSFKNMCKLKPLLNKWLEEADSS, -0.042 ± 0.036.
The value for EDLPTSDDLEQFAKQFKQRRIKLGFTQADVGLALGTLYGNVFSQTTICRFEALQLSFKNMCKLKPLLNKWLEEADSS was -0.086 ± 0.037.
The value for EDTPTSDDLEQFSKQFKQRRIKLGFTQADVGLALGTLYGNVFSQTTICRFEALQLSFKNMCKLKPLLNKWLEEADSS was -0.274 ± 0.041; that for EDTPTSDDLEQFTKQFKQRRIKLGFTQADVGLALGTLYGNVFSQTTICRFEALQLSFKNMCKLKPLLNKWLEEADSS was -0.255 ± 0.053; that for EDTPTSDDLEQFAKQFKQRRIKLGFTQADVGLALGTLYGNVFSQTTIFRFEALQLSFKNMCKLKPLLNKWLEEADSS was -0.2 ± 0.075.
Turning to EDTPTSDDLEQFAKQFKQRRIKLGFTQADVGLALGTLYGNVFSQTTIERFEALQLSFKNMCKLKPLLNKWLEEADSS, the abundance fitness was found to be 0.085 ± 0.035.
As to FDTPTSDDLEQFAKQFKQRRIKLGFTQADVGLALGTLYGNVFSQTTICRFEALQLSFKNMCKLKPLLNKWLEEADSS, the abundance fitness was found to be 0.231 ± 0.27.
Under MDTPTSDDLEQFAKQFKQRRIKLGFTQADVGLALGTLYGNVFSQTTICRFEALQLSFKNMCKLKPLLNKWLEEADSS stands 0.05 ± 0.066; under EDTPTSDDLEQFAKQFKQRRIKLGLTQADVGLALGTLYGNVFSQTTICRFEALQLSFKNMCKLKPLLNKWLEEADSS, -0.08 ± 0.03; under EDTPTSDDLEQFAKQFKQRRIKLGFTQADVGLALGTLYNNVFSQTTICRFEALQLSFKNMCKLKPLLNKWLEEADSS, -0.012 ± 0.066.
The value for EDTPTSDWLEQFAKQFKQRRIKLGFTQADVGLALGTLYGNVFSQTTICRFEALQLSFKNMCKLKPLLNKWLEEADSS was -0.418 ± 0.042.
In the case of EDTPTSDGLEQFAKQFKQRRIKLGFTQADVGLALGTLYGNVFSQTTICRFEALQLSFKNMCKLKPLLNKWLEEADSS, the abundance fitness is -0.043 ± 0.027.
The value for EDTPTSDDLEQFAKQFKQRRIKLGFTQADVGLELGTLYGNVFSQTTICRFEALQLSFKNMCKLKPLLNKWLEEADSS was -0.172 ± 0.042; that for EDTPTSDDLEQFAKQFKQRRIKLGFTQADVGLALGTLYGNVFSQTTICRFEALQLSQKNMCKLKPLLNKWLEEADSS was -0.022 ± 0.042.
With EDTPTSDDLEQFAKQFKQRRIKLHFTQADVGLALGTLYGNVFSQTTICRFEALQLSFKNMCKLKPLLNKWLEEADSS, the abundance fitness is -0.466 ± 0.1.
Take EDTPTSDDLEQFAKQFKQRRIKLMFTQADVGLALGTLYGNVFSQTTICRFEALQLSFKNMCKLKPLLNKWLEEADSS: the abundance fitness is -0.821 ± 0.072.
Under EDTPTSDDLEQFAKQFKQRRIKLGFTQADVGLALGTLYGNVFSQTTICRFEALQLSFKNMCKHKPLLNKWLEEADSS stands -0.451 ± 0.11; under EDTPTSDDLEQFAKQFKQRRIKLGFTQADVGLALGTLYGNVFSQTTICRFEALQLSFKNMCKWKPLLNKWLEEADSS, -0.489 ± 0.037.
On to EDTPTQDDLEQFAKQFKQRRIKLGFTQADVGLALGTLYGNVFSQTTICRFEALQLSFKNMCKLKPLLNKWLEEADSS, for which the abundance fitness turned out to be 0.124 ± 0.035.
Under EDTPTSDDLEQFAKQFKQRRIKLGFTQADVGLALGTLYGNVFSQTTICRFEALQLSFQNMCKLKPLLNKWLEEADSS stands 0.024 ± 0.042; under EDTPTSDDLEQFAKQFKQRRIKLGFTQADVGLALGTLYGNVFSQTTICRFEALQLSFKNMCWLKPLLNKWLEEADSS, -0.172 ± 0.038; under EDTPTSDDLEQFAKQFKQRRIKLGFTQADVGLALGTLYGNVFSQTTICRFEALQLSFKNMCNLKPLLNKWLEEADSS, -0.151 ± 0.068.
Regarding EDTPTSDDLEQFAKQFKQRRIKLGFLQADVGLALGTLYGNVFSQTTICRFEALQLSFKNMCKLKPLLNKWLEEADSS, the abundance fitness is -0.758 ± 0.085.
Regarding EDTPTSDDLEQFAKQFKQRRIKLGFWQADVGLALGTLYGNVFSQTTICRFEALQLSFKNMCKLKPLLNKWLEEADSS, the abundance fitness is -0.898 ± 0.11.
As for EDTPTSDDLEQFAKQFKQRRIKLGFRQADVGLALGTLYGNVFSQTTICRFEALQLSFKNMCKLKPLLNKWLEEADSS, the abundance fitness was -0.457 ± 0.039.
Under EDTPTSDDLEQFAKQFKQRRIKLGFTQADVGLALGTLYGNVFSQTTICRFEALQLSFKIMCKLKPLLNKWLEEADSS stands 0.092 ± 0.079; under EDTPTSDDLEQFAKSFKQRRIKLGFTQADVGLALGTLYGNVFSQTTICRFEALQLSFKNMCKLKPLLNKWLEEADSS, 0.013 ± 0.036; under EDTPTSDDLEQFAKQFKQRRIKLGFTQADVGLALGTLYGNVFSQTWICRFEALQLSFKNMCKLKPLLNKWLEEADSS, -0.307 ± 0.039.
The value for EDTNTSDDLEQFAKQFKQRRIKLGFTQADVGLALGTLYGNVFSQTTICRFEALQLSFKNMCKLKPLLNKWLEEADSS was -0.095 ± 0.079.
As to EDTPTSDDLEQFAKQFKQRRIKLGFTQADVGLALGTLYGNVFSQTTVCRFEALQLSFKNMCKLKPLLNKWLEEADSS, the abundance fitness was -0.121 ± 0.027.
The value for EDTPTSDDLEQFAKQFKQRRIKLGFTQADVGLALGTLYGNVFSQTTICRFEALQLSFKNMCKLDPLLNKWLEEADSS was -1.06 ± 0.23; that for EDTPTSDDLEQFAKQFKQRRIKLGFTQADVGLALGTLYGNVFSQTTICRFEALQLEFKNMCKLKPLLNKWLEEADSS was -0.128 ± 0.043.
The value for EDTPTSDDLEQFAKQFKQRRIKLGFTQADVGLALGTLYGYVFSQTTICRFEALQLSFKNMCKLKPLLNKWLEEADSS was -0.007 ± 0.084.
As to EDTPTSDDLEQFAKQFKQRRIKLGFTQADVGLALGTLYGNVFSQTTICRFEAKQLSFKNMCKLKPLLNKWLEEADSS, the abundance fitness is -0.06 ± 0.06.
Consider EDTPTSDDLEQFAKQFKQRRIKLGFTQADVGLALGTLYGNVFSQTTICRFEAHQLSFKNMCKLKPLLNKWLEEADSS, for which the abundance fitness was -0.017 ± 0.069.
Under EDTPTSDDLEQFAKQFKQRDIKLGFTQADVGLALGTLYGNVFSQTTICRFEALQLSFKNMCKLKPLLNKWLEEADSS stands -1.05 ± 0.24.
Under EDTPTSDDLEQFAKQFKQRMIKLGFTQADVGLALGTLYGNVFSQTTICRFEALQLSFKNMCKLKPLLNKWLEEADSS stands -1.29 ± 0.3; under EDTPTSDDLEQFAKQFKQRRIKAGFTQADVGLALGTLYGNVFSQTTICRFEALQLSFKNMCKLKPLLNKWLEEADSS, -0.188 ± 0.033.
Under EDTPTSDDLEQFAKQFKQRRIKLGFTQADVGLALGTLYGNVFSQTTICRFEALQLSFKNMCKLKHLLNKWLEEADSS stands -0.034 ± 0.25; under EDTPTSDDLEQFAKQFKQRRIKLGFTQADVGLALGTLYGNVFSQTTICRFEALQLSFKNMCKLKPLLNKALEEADSS, -0.519 ± 0.048.
As to EDTPTSDDLEQFAKQFKQRRIKLGFTQCDVGLALGTLYGNVFSQTTICRFEALQLSFKNMCKLKPLLNKWLEEADSS, the abundance fitness is -0.165 ± 0.048.
With EDTPTSEDLEQFAKQFKQRRIKLGFTQADVGLALGTLYGNVFSQTTICRFEALQLSFKNMCKLKPLLNKWLEEADSS, the abundance fitness was -0.087 ± 0.13.
With EDTPTSDDLEQFAKQFKQRRIKLGFTQADVGLALGTLYGNVFSQTTICRFEALQLSFKNMSKLKPLLNKWLEEADSS, the abundance fitness was -0.165 ± 0.034.
With EDTPTSDDLEQFAKQFKQRRIKLGFTQADVGLALGTLYGNVFSQTTICFFEALQLSFKNMCKLKPLLNKWLEEADSS, the abundance fitness was -0.694 ± 0.18.
Under EDTPTSDDLEQFAKQFKQRRIKLGFTQADVGLALGTLYGNVFSQTTICQFEALQLSFKNMCKLKPLLNKWLEEADSS stands 0.045 ± 0.04.
